Test results: PMC12311110

How the values were obtained:
endogenous VPS26, O75436 = experiment: GFP-based co-IP, western blot band quantification; conditions: chain shown with the change; HEK293T cells, transient transfection; normalised to GFP band intensity; n = 3; parent: est. 100; read off a plot
VPS35, Q96QK1 = experiment: GFP-based co-IP, western blot band quantification; conditions: chain shown with the change; HEK293T cells, transient transfection; normalised to GFP band intensity; n = 3; parent: est. 100; read off a plot

percent of parent (relative intensity (WT = 100)) (endogenous VPS26, O75436): 18 | percent of parent (relative intensity (WT = 100)) (VPS35, Q96QK1): 22
B1: GFP-DENND4C fragment 1087-1271, WT, Q5VZ89 Y1239D (protein)
chain: PKTSLLHIARTHSFENVSCHLPDSRTCMSESTWNPEHRSSPVPEMLEESQELLEPVVDDVPKTTATVDTYESLLSDSNSNQSRDLKTVSKDLRNKRSSLYGIAKVVQREDVETGLDPLSLLATECTGGKTPDSEDKLFSPVIARNLADEIESDMNLKSPLGSKSSSMELHREENRESGMTTAFIH
